# The Human Domainome abundance scans (Beltran et al. 2025)
# ± gives the uncertainty stated by the source.
# B1: DnaJ homolog subfamily C member 5, residues 16 to 77; numbered along this chain, Q9H3Z4 (parent)
# chain: LYHVLGLDKNATSDDIKKSYRKLALKYHPDKNPDNPEAADKFKEINNAHAILTDATKRNIYD
# Variants of: B1
# Test: abundance fitness (aPCA) (normalised: wild type 0, dead -1); higher = more abundant; growth selection in yeast, the domain comes from the species named
# Settings: Homo sapiens
row,Variant,abundance fitness
1,LYHVLGLDKNATSDDIKKSYRKLALKYHPDKNQDNPEAADKFKEINNAHAILTDATKRNIYD,-0.063 ± 0.11
2,LYHVLGLDKNATSDDIKKSYRKLALKYHPDKNCDNPEAADKFKEINNAHAILTDATKRNIYD,-0.327 ± 0.11
3,LYHVLGLDKNATSDDIKKSYRKLALKYHPDKNIDNPEAADKFKEINNAHAILTDATKRNIYD,-0.501 ± 0.16
4,LYHVLGLDKNATSDDIKKSYRKLALKYHPDKNYDNPEAADKFKEINNAHAILTDATKRNIYD,-0.34 ± 0.09
5,LYHVLGLDKNATSDDIKKSYRKLALKYHPDKNKDNPEAADKFKEINNAHAILTDATKRNIYD,0.209 ± 0.14
6,LYHVLGLDKNATSDDIKKSYRKLALKYHPDKNGDNPEAADKFKEINNAHAILTDATKRNIYD,0.111 ± 0.052
7,LYHVLGLDKNATSDDIKKSYRKLALKYHPDKNLDNPEAADKFKEINNAHAILTDATKRNIYD,-0.507 ± 0.075
8,LYHVLGLDKNATSDDIKKSYRKLALKYHPDKNHDNPEAADKFKEINNAHAILTDATKRNIYD,-0.798 ± 0.28
9,LYHVLGLDKNATSDDIKKSYRKLALKYHPDKNEDNPEAADKFKEINNAHAILTDATKRNIYD,-0.035 ± 0.085
10,LYHVLGLDKNATSDDIKKSYRKLALKYHPDKNMDNPEAADKFKEINNAHAILTDATKRNIYD,-0.489 ± 0.1
11,LYHVLGLDKNATSDDIKKSYRKLALKYHPDKNRDNPEAADKFKEINNAHAILTDATKRNIYD,0.064 ± 0.053
12,LYHVLGLDKNATSDDIKKSYRKLALKYHPDKNFDNPEAADKFKEINNAHAILTDATKRNIYD,-0.351 ± 0.18
13,LYHVLGLDKNATSDDIKKSYRKLALKYHPDKNSDNPEAADKFKEINNAHAILTDATKRNIYD,-0.121 ± 0.085
14,LYHVLGLDKNATSDDIKKSYRKLALKYHPDKNNDNPEAADKFKEINNAHAILTDATKRNIYD,-0.365 ± 0.22
15,LYHVLGLDKNATSDDIKKSYRKLALKYHPDKNVDNPEAADKFKEINNAHAILTDATKRNIYD,-0.225 ± 0.055
16,LYHVLGLDKNATSDDIKKSYRKLALKYHPDKNADNPEAADKFKEINNAHAILTDATKRNIYD,-0.032 ± 0.09
17,LYHVLGLDKNATSDDIKKSYRKLALKYHPDKNDDNPEAADKFKEINNAHAILTDATKRNIYD,-0.16 ± 0.14
18,LYHVLGLDKNATSDDIKKSYRKLALKYHPDKNTDNPEAADKFKEINNAHAILTDATKRNIYD,-0.098 ± 0.076
19,LYHVLGLDKNATSDDIKKSYRKLALKYHPDKNPDNPEIADKFKEINNAHAILTDATKRNIYD,-0.043 ± 0.12
20,LYHVLGLDKNATSDDIKKSYRKLALKYHPDKNPDNPENADKFKEINNAHAILTDATKRNIYD,-0.296 ± 0.17
21,LYHVLGLDKNATSDDIKKSYRKLALKYHPDKNPDNPEHADKFKEINNAHAILTDATKRNIYD,-0.169 ± 0.13
22,LYHVLGLDKNATSDDIKKSYRKLALKYHPDKNPDNPEDADKFKEINNAHAILTDATKRNIYD,-0.137 ± 0.099

row,Variant,abundance fitness
1,LYHVLGLDKNATSDDIKKSYRKLALKYHPDKNPDNPELADKFKEINNAHAILTDATKRNIYD,-0.243 ± 0.069
2,LYHVLGLDKNATSDDIKKSYRKLALKYHPDKNPDNPEFADKFKEINNAHAILTDATKRNIYD,-0.194 ± 0.15
3,LYHVLGLDKNATSDDIKKSYRKLALKYHPDKNPDNPEKADKFKEINNAHAILTDATKRNIYD,-0.338 ± 0.12
4,LYHVLGLDKNATSDDIKKSYRKLALKYHPDKNPDNPEEADKFKEINNAHAILTDATKRNIYD,-0.193 ± 0.14
5,LYHVLGLDKNATSDDIKKSYRKLALKYHPDKNPDNPECADKFKEINNAHAILTDATKRNIYD,-0.401 ± 0.16
6,LYHVLGLDKNATSDDIKKSYRKLALKYHPDKNPDNPEMADKFKEINNAHAILTDATKRNIYD,-0.13 ± 0.097
7,LYHVLGLDKNATSDDIKKSYRKLALKYHPDKNPDNPEQADKFKEINNAHAILTDATKRNIYD,-0.371 ± 0.12
8,LYHVLGLDKNATSDDIKKSYRKLALKYHPDKNPDNPERADKFKEINNAHAILTDATKRNIYD,-0.279 ± 0.063
9,LYHVLGLDKNATSDDIKKSYRKLALKYHPDKNPDNPEPADKFKEINNAHAILTDATKRNIYD,-0.559 ± 0.14
10,LYHVLGLDKNATSDDIKKSYRKLALKYHPDKNPDQPEAADKFKEINNAHAILTDATKRNIYD,-0.265 ± 0.1
11,LYHVLGLDKNATSDDIKKSYRKLALKYHPDKNPDRPEAADKFKEINNAHAILTDATKRNIYD,-0.282 ± 0.082
12,LYHVLGLDKNATSDDIKKSYRKLALKYHPDKNPDKPEAADKFKEINNAHAILTDATKRNIYD,-0.194 ± 0.11
13,LYHVLGLDKNATSDDIKKSYRKLALKYHPDKNPDAPEAADKFKEINNAHAILTDATKRNIYD,-0.184 ± 0.082
14,LYHVLGLDKNATSDDIKKSYRKLALKYHPDKNPDWPEAADKFKEINNAHAILTDATKRNIYD,-0.317 ± 0.095
15,LYHVLGLDKNATSDDIKKSYRKLALKYHPDKNPDGPEAADKFKEINNAHAILTDATKRNIYD,-0.281 ± 0.072
16,LYHVLGLDKNATSDDIKKSYRKLALKYHPDKNPDHPEAADKFKEINNAHAILTDATKRNIYD,-0.197 ± 0.094
17,LYHVLGLDKNATSDDIKKSYRKLALKYHPDKNPDVPEAADKFKEINNAHAILTDATKRNIYD,-0.255 ± 0.061
18,LYHVLGLDKNATSDDIKKSYRKLALKYHPDKNPDIPEAADKFKEINNAHAILTDATKRNIYD,-0.255 ± 0.14
19,LYHVLGLDKNATSDDIKKSYRKLALKYHPDKNPDMPEAADKFKEINNAHAILTDATKRNIYD,-0.431 ± 0.088
20,LYHVLGLDKNATSDDIKKSYRKLALKYHPDKNPDFPEAADKFKEINNAHAILTDATKRNIYD,-0.309 ± 0.17
21,LYHVLGLDKNATSDDIKKSYRKLALKYHPDKNPDTPEAADKFKEINNAHAILTDATKRNIYD,-0.143 ± 0.086
22,LYHVLGLDKNATSDDIKKSYRKLALKYHPDKNPDCPEAADKFKEINNAHAILTDATKRNIYD,-0.462 ± 0.19

row,Variant,abundance fitness
1,LYHVLGLDKNATSDDIKKSYRKLALKYHPDKNPDEPEAADKFKEINNAHAILTDATKRNIYD,-0.235 ± 0.094
2,LYHVLGLDKNATSDDIKKSYRKLALKYHPDKNPDSPEAADKFKEINNAHAILTDATKRNIYD,-0.041 ± 0.089
3,LYHVLGLDKNATSDDIKKSYRKLALKYHPDKVPDNPEAADKFKEINNAHAILTDATKRNIYD,-0.396 ± 0.078
4,LYHVLGLDKNATSDDIKKSYRKLALKYHPDKWPDNPEAADKFKEINNAHAILTDATKRNIYD,-0.179 ± 0.081
5,LYHVLGLDKNATSDDIKKSYRKLALKYHPDKYPDNPEAADKFKEINNAHAILTDATKRNIYD,-0.67 ± 0.14
6,LYHVLGLDKNATSDDIKKSYRKLALKYHPDKTPDNPEAADKFKEINNAHAILTDATKRNIYD,-0.251 ± 0.086
7,LYHVLGLDKNATSDDIKKSYRKLALKYHPDKSPDNPEAADKFKEINNAHAILTDATKRNIYD,-0.3 ± 0.081
8,LYHVLGLDKNATSDDIKKSYRKLALKYHPDKNPDNPQAADKFKEINNAHAILTDATKRNIYD,0.079 ± 0.081
9,LYHVLGLDKNATSDDIKKSYRKLALKYHPDKNPDNPNAADKFKEINNAHAILTDATKRNIYD,0.042 ± 0.17
10,LYHVLGLDKNATSDDIKKSYRKLALKYHPDKNPDNPRAADKFKEINNAHAILTDATKRNIYD,-0.117 ± 0.05
11,LYHVLGLDKNATSDDIKKSYRKLALKYHPDKNPDNPYAADKFKEINNAHAILTDATKRNIYD,-0.226 ± 0.11
12,LYHVLGLDKNATSDDIKKSYRKLALKYHPDKNPDNPVAADKFKEINNAHAILTDATKRNIYD,0.041 ± 0.054
13,LYHVLGLDKNATSDDIKKSYRKLALKYHPDKNPDNPCAADKFKEINNAHAILTDATKRNIYD,-0.206 ± 0.074
14,LYHVLGLDKNATSDDIKKSYRKLALKYHPDKNPDNPPAADKFKEINNAHAILTDATKRNIYD,-0.441 ± 0.12
15,LYHVLGLDKNATSDDIKKSYRKLALKYHPDKNPDNPTAADKFKEINNAHAILTDATKRNIYD,-0.011 ± 0.071
16,LYHVLGLDKNATSDDIKKSYRKLALKYHPDKNPDNPIAADKFKEINNAHAILTDATKRNIYD,-0.406 ± 0.17
17,LYHVLGLDKNATSDDIKKSYRKLALKYHPDKNPDNPWAADKFKEINNAHAILTDATKRNIYD,-0.171 ± 0.068
18,LYHVLGLDKNATSDDIKKSYRKLALKYHPDKNPDNPGAADKFKEINNAHAILTDATKRNIYD,-0.063 ± 0.059
19,LYHVLGLDKNATSDDIKKSYRKLALKYHPDKNPDNPSAADKFKEINNAHAILTDATKRNIYD,0.036 ± 0.069
20,LYHVLGLDKNATSDDIKKSYRKLALKYHPDKNPDNPDAADKFKEINNAHAILTDATKRNIYD,-0.238 ± 0.13
21,LYHVLGLDKNATSDDIKKSYRKLALKYHPDKNPDNPHAADKFKEINNAHAILTDATKRNIYD,0.004 ± 0.18
22,LYHVLGLDKNATSDDIKKSYRKLALKYHPDKNPDNPLAADKFKEINNAHAILTDATKRNIYD,-0.172 ± 0.062

row,Variant,abundance fitness
1,LYHVLGLDKNATSDDIKKSYRKLALKYHPDKNPDNPFAADKFKEINNAHAILTDATKRNIYD,-0.01 ± 0.09
2,LYHVLGLDKNATSDDIKKSYRKLALKYHPDKNPDNPMAADKFKEINNAHAILTDATKRNIYD,-0.217 ± 0.13
3,LYHVLGLDKNATSDDIKKSYRKLALKYHPDKNPGNPEAADKFKEINNAHAILTDATKRNIYD,0.068 ± 0.073
4,LYHVLGLDKNATSDDIKKSYRKLALKYHPDKNPWNPEAADKFKEINNAHAILTDATKRNIYD,-0.944 ± 0.12
5,LYHVLGLDKNATSDDIKKSYRKLALKYHPDKNPFNPEAADKFKEINNAHAILTDATKRNIYD,-1.01 ± 0.12
6,LYHVLGLDKNATSDDIKKSYRKLALKYHPDKNPCNPEAADKFKEINNAHAILTDATKRNIYD,-0.783 ± 0.12
7,LYHVLGLDKNATSDDIKKSYRKLALKYHPDKNPYNPEAADKFKEINNAHAILTDATKRNIYD,-0.355 ± 0.095
8,LYHVLGLDKNATSDDIKKSYRKLALKYHPDKNPQNPEAADKFKEINNAHAILTDATKRNIYD,-0.206 ± 0.089
9,LYHVLGLDKNATSDDIKKSYRKLALKYHPDKNPTNPEAADKFKEINNAHAILTDATKRNIYD,-0.257 ± 0.096
10,LYHVLGLDKNATSDDIKKSYRKLALKYHPDKNPMNPEAADKFKEINNAHAILTDATKRNIYD,-0.694 ± 0.12
11,LYHVLGLDKNATSDDIKKSYRKLALKYHPDKNPPNPEAADKFKEINNAHAILTDATKRNIYD,-0.623 ± 0.1
12,LYHVLGLDKNATSDDIKKSYRKLALKYHPDKNPANPEAADKFKEINNAHAILTDATKRNIYD,-0.145 ± 0.074
13,LYHVLGLDKNATSDDIKKSYRKLALKYHPDKNPVNPEAADKFKEINNAHAILTDATKRNIYD,-0.591 ± 0.056
14,LYHVLGLDKNATSDDIKKSYRKLALKYHPDKNPNNPEAADKFKEINNAHAILTDATKRNIYD,-0.299 ± 0.086
15,LYHVLGLDKNATSDDIKKSYRKLALKYHPDKNPHNPEAADKFKEINNAHAILTDATKRNIYD,-0.411 ± 0.2
16,LYHVLGLDKNATSDDIKKSYRKLALKYHPDKNPRNPEAADKFKEINNAHAILTDATKRNIYD,-0.251 ± 0.074
17,LYHVLGLDKNATSDDIKKSYRKLALKYHPDKNPINPEAADKFKEINNAHAILTDATKRNIYD,-0.586 ± 0.17
18,LYHVLGLDKNATSDDIKKSYRKLALKYHPDKNPENPEAADKFKEINNAHAILTDATKRNIYD,-0.079 ± 0.085
19,LYHVLGLDKNATSDDIKKSYRKLALKYHPDKNPLNPEAADKFKEINNAHAILTDATKRNIYD,-0.641 ± 0.07
20,LYHVLGLDKNATSDDIKKSYRKLALKYHPDKNPKNPEAADKFKEINNAHAILTDATKRNIYD,-0.006 ± 0.1
